Paper PMC9751120

B1: ΔNp63α (natural protein)
chain: MLYLENNAQTQFSEPQYTNLGLLNSMDQQIQNGSSSTSPYNTDHAQNSVTAPSPYAQPSSTFDALSPSPAIPSNTDYPGPHSFDVSFQQSSTAKSATWTYSTELKKLYCQIAKTCPIQIKVMTPPPQGAVIRAMPVYKKAEHVTEVVKRCPNHELSREFNEGQIAPPSHLIRVEGNSHAQYVEDPITGRQSVLVPYEPPQVGTEFTTVLYNFMCNSSCVGGMNRRPILIIVTLETRDGQVLGRRCFEARICACPGRDRKADEDSIRKQQVSDSTKNGDGTKRPFRQNTHGIQMTSIKKRRSPDDELLYLPVRGRETYEMLLKIKESLELMQYLPQHTIETYRQQQQQQHQHLLQKQTSIQSPSSYGNSSPPLNKMNSMNKLPSVSQLINPQQRNALTPTTIPDGMGANIPMMGTHMPMAGDMNGLSPTQALPPPLSMPSTSHCTPPPPYPTDCSIVSFLARLGCSSCLDYFTTQGLTTIYQIEHYSMDDLASLKIPEQFRHAIWKGILDHRQLHEFSSPSHLLRTPSSASTVSVGSSETRGERVIDAVRFTLRQTISFPPRDEWNDFNFDMDARRNKQQRIKEEGE
B2: p63 Sterile α-motif (SAM) domain (domain or fragment)
chain: PPYPTDCSIVSFLARLGCSSCLDYFTTQGLTTIYQIEHYSMDDLASLKIPEQFRHAIWKGILDHRQL

Assays:
[1] = biological target: Alexa 488 labeled DARPin A5; test: fluorescence polarisation; fluorescence anisotropy; 500 nM Alexa 488 labeled DARPin constant, p63 isoform 0-10 µM; 50 mM Tris pH 8, 150 mM NaCl, 0.5 mM TCEP, 0.1 % Tween-20; the sheet says 20 °C, the methods 16 °C
[2] = biological target: Alexa 488 labeled DARPin C14; test: as above
[3] = biological target: Alexa 488 labeled DARPin 8F1; test: as above
[4] = biological target: DARPin A5; test: ITC; target proteins titrated to constant concentrations of DARPin; 50 mM HEPES, pH 7.4, 150 mM NaCl, 0.5 mM TCEP; AB hetero-association model (SEDPHAT); temperatures not shown
[5] = biological target: DARPin A5; test: ITC; target protein titrated into a constant concentration of DARPin, 25 injections of 10 µl; 50 mM HEPES pH 7.4, 150 mM NaCl, 0.5 mM TCEP; 25 °C; AB hetero-association model (SEDPHAT)

Binder	Kd [1] [nM]	Kd [2] [nM]	Kd [3] [nM]	Kd [4] [nM]	Ka [5] [M⁻¹]
B1	67.9	202	95.6	–	–
B2	–	–	–	16	6.18e+07
